What was measured:
[1] = system: MS2 coat protein; test: apparent KD of MS2 coat protein, switch ON state; designed switch direction (-1 OFF switch, 1 ON switch): -1; higher = weaker reporter binding; conditions: FMN input: 0 or 200 uM; Eterna round: R93 (includes R88 designs)
How it was run: (§1)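 Each design's apparent KD comes from the median of binding-curve fits to its normalised clusters. Those clusters carried RNA switches transcribed on-chip from Illumina sequencing clusters. SNAP-549-labelled MS2 coat protein was titrated onto them in twofold steps (0.7 or 1.5 nM to 3 µM; per step 0.8–1.5 h down to 10–20 min). Conditions were 100 mM Tris-HCl pH 7.5, 80 mM KCl, 4 mM MgCl2, without or with constant ligand.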

[2] = system: MS2 coat protein; test: apparent KD of MS2 coat protein, switch OFF state (with FMN for OFF switches, without FMN for ON switches); designed switch direction (-1 OFF switch, 1 ON switch): -1; higher = weaker reporter binding; conditions: FMN input: 0 or 200 uM; Eterna round: R93 (includes R88 designs)
How it was run: as §1

Sequence	apparent KD of MS2 coat protein [1] [nM]	apparent KD of MS2 coat protein [2] [nM]
AAGAGUACAGGAUAUAUGUGAAAAGAGUCGAAAGACUCGGGACAUGAGGAUCACCCAUGUAGAAGGGUACUCAA [Diamond 75]	75.7	79.7
AAGAGUAGAGGAUAUACAUGAGGAUCACCCAUGUAAUCCAGAUAAGGAAGCAUGGCGUGUAGAAGGCUGCAUGA [MOD of Nando (MS2 Riboswitches- Exclusion 3)]	28.2	35.2
AAGAUGUCAGGAUAUACAUAAAUAAAAAAUUAUGUUAAAACACAUGAGGAUCACCCAUGUAGAAGGGACAACAA [AJ 6]	36.4	20.7
AAGCUGGUAGGAUAUACUAGGGCAACUAAUGCACCGAGAGGACAUGAGGAUCACCCAUGUAGAAGGGCCAGAAA [Mat - Exclusion 2 - JL mod - D63]	114	82.3
AAGGGACAUGAGGAUCACCCAUGUCAGGAUAUGAUGCGAAUAAAGAAAGAAUAAAGCAUCAGAAGGGACGCCAA [Mat - Exclusion 1 - Eli mod - D65]	21.1	25.7
AAGGUACGAGGAUAUACAUAGAUACAAACACAUGUGGAUGUACAUGAGGAUCACCCAUGUAGAAGGCGUAUAUA [AJ 22]	58.6	84.7
AAGGUACGAGGAUAUACAUAGAUACAGACACAUGUAGAUGUACAUGAGGAUCACCCAUGUAGAAGGCGUAUAUA [AJ 20]	60.7	97.5
AAGUAUAGAGGAUAUACAUAGAUACAGAUUCAUGUAGAACUACAUGAGGAUCACCCAUGUAGAAGGCUAUAAUA [AJ 34]	19.4	27.9
AAGUUGGGAGGAUAUAUAUGGACACACAUUGGUGUAGAACUACAUGAGGAUCACCCAUGUAGAAGGCCCAAAUA [AJ 57]	20.3	33.1
AAUAACAGAGGAUAUACAAAAAUAAAAGGAAACAAAAGAAAACAUGAGGAUCACCCAUGUAGAAGGCUGAAUAA [Tetraloop BlockHead]	19.4	20.3
AAUAAGUGAGGAUAUACUAAAGAAAUGAAAAGAAAUAAAGAACAUGAGGAUCACCCAUGUAGAAGGCACAAUAA [Sekheperenre]	24.4	24.5
AAUAAGUGAGGAUAUGGAAAUAAUAAAUAAAAUAAAAUAAACCAGAAGGCACAUGAGGAUCACCCAUGUAAAUA [JR_Exc004_Sub002]	24.4	22
AAUAAUGGAGGAUAUACUAAAGAAAUGAAAAGAAAUAAAGAACAUGAGGAUCACCCAUGUAGAAGGCCAAAUAA [Khamure]	26	27.8
AAUGCGGCAGGAUAUACAUGAGGAUCACCCAUGUAGAUCAGAUAUAUGGGAAAACCAUGUAGAAGGGCCGCAAA [Ex 3May 60]	109	29.6
ACAGUUACAGGAUAUACAAAGGUAACUUCAAAGAAAACUCUACAUGAGGAUCACCCAUGUAGAAGGGUAACUGA [Ex2 Design 200 (probably): Random 17]	14.3	18.2
ACAGUUACAGGAUAUACAAGGAAAAAUAAAAAUAAAAUUCAACAUGAGGAUCACCCAUGUAGAAGGGUAACUGA [Ex2 Design 200: Random 15]	30	32.1
ACAUGUACAGGAUAUACGUGGAAAAAAAAAAAAAAAAAACUACAUGAGGAUCACCCAUGUAGAAGGGUACAUGA [Ex2 Design 194: Random 12C]	26.5	37

Sequence	apparent KD of MS2 coat protein [1] [nM]	apparent KD of MS2 coat protein [2] [nM]
ACCUAACAUGAGGAUCACCCAUGUGAGGAUAUAGACGUGAAUUAAACACGUAACAAAACUAGAAGGCACUGGGC [Erbeardi]	26.1	16.8
ACCUGACAUGAGGAUCACCCAUGUCAGGAUAUGCAUCUUAGGAAAAAAAAACUAAGAUGCAGAAGGGACAUGGG [Design 2: Super Stable 2]	25.4	27.5
ACUAACAGAGGAUAUACUAACAAACCUCAAACAUACAUCAAACAUGAGGAUCACCCAUGUAGAAGGCUGAAACU [JR_Exc002_Sub005]	26.7	27
ACUUAUGAAGGAUAUACUAGCAACAUGCACUCAACACACACACAUGAGGAUCACCCAUGUAGAAGGUCAAACAU [JR_Exc002_Sub1206]	23.2	19.7
AGAAAACAUGAGGAUCACCCAUGUAAGGAUAUGCUGAAAAACACGGAAAAAACGUGCAGCAGAAGGUACAAAGA [Mat - Exclusion 1 - Eli mod - D95]	22.4	40.8
AGAAAACAUGAGGAUCACCCAUGUCAGGAUAUCCUGCGGUGAUACACACCGCGUUGUCGGAGAAGGGACAGGGA [Tiesesmari]	65.6	81.9
AGAAAACAUGAGGAUCACCCAUGUGAGGAUAUGUAAAAGAAAAGAAAAGAAAGAAGAAACAGAAGGCACAAGAA [Nynetjer]	24.9	45.6
AGAAAGGCAGGAUAUACAUGAGGAUCACCCAUGUUAAGAAAGACGGAAACGUCAAGAAGUAGAAGGGCCAAGAA [Shaken, but not stirred]	21.9	19.7
AGAAAGGUAGGAUAUACGAAAAAAAAGGGUAGAAAAAAAACACAUGAGGAUCACCCAUGUAGAAGGACCAAAGA [Mat - Exclusion 2 - Tesla mod - D31]	35.2	47.5
AGAAAGUCAGGAUAUACGAAAGUGCGAAAGCACAAAAGGGAACAUGAGGAUCACCCAUGUAGAAGGGACAAGAA [Diamond 77]	91.4	170
AGAAAGUCAGGAUAUCAGAAUAAGUCGAAAACGACUAGUAAUGAGAAGGGACAUGAGGAUCACCCAUGUAAGAA [Ex4 sub 3]	49	37.1
AGAAAGUCAGGAUAUGUACAAAAUAAAAUAAAAAUAAAAGUACAGAAGGGACAUGAGGAUCACCCAUGUAAAGA [Mat - Exclusion 4 - Mayanna - D121]	50.2	52.4
AGAAAGUCAGGAUAUGUGGAAAAAAUAAAAAAAAUAAAAACACAGAAGGGACAUGAGGAUCACCCAUGUUAAGA [Mat - Exclusion 4 - Mayanna - D139]	53.4	30.3
AGAAUACAUGAGGAUCACCCAUGUGAGGAUAUAUGAAGAAAAAGAAAAGAAAAGAAACAUAGAAGGCACAAAAG [EX 1 May 16]	16.1	86.7
AGAAUACAUGAGGAUCACCCAUGUGAGGAUAUGUGAAGAAAAAGAAAAGAAAAGAAACACAGAAGGCACAAAAG [EX 1 May 17]	29.7	69.3
AGCAAGUCAGGAUAUACGAACAAGACAAAAGACGAGAAGGGACAUGAGGAUCACCCAUGUAGAAGGGACAAGCA [74%, Web mod - With 5 less U's]	61.9	60.8
AGCAAGUGAGGAUAUGCGAAGUCAGGACAAACACUGACGAAGCAGAAGGCACAUGAGGAUCACCCAUGUAAGCA [Mat - Exaclusion 4 - Eli mod - D60]	28.8	29.8

— the supplement of paper PMC9170038
